# Measured values taken from PMC12499500, “Structural Basis of GABAB Receptor Activation during Evolution” (Advanced Science, 2025).
# B1: dominant-negative Gαi1 (S47N, G203A, E245A, A326S) (natural protein, human)
# chain: MGCTLSAEDKAAVERSKMIDRNLREDGEKAAREVKLLLLGAGESGKNTIVKQMKIIHEAGYSEEECKQYKAVVYSNTIQSIIAIIRAMGRLKIDFGDSARADDARQLFVLAGAAEEGFMTAELAGVIKRLWKDSGVQACFNRSREYQLNDSAAYYLNDLDRIAQPNYIPTQQDVLRTRVKTTGIVETHFTFKDLHFKMFDVGAQRSERKKWIHCFEGVTAIIFCVALSDYDLVLAEDEEMNRMHASMKLFDSICNNKWFTDTSIILFLNKKDLFEEKIKKSPLTICYPEYAGSNTYEEAAAYIQCQFEDLNKRKDTKEIYTHFTCSTDTKNVQFVFDAVTDVIIKNNLKDCGLF
# Key:
# Assay in all cases: cell-based or functional assay
# human GB2 Δ753 = molecular target: T1, human GB2 Δ753 (human, UniProt O75899 42-753)
# T1 sequence (looked up): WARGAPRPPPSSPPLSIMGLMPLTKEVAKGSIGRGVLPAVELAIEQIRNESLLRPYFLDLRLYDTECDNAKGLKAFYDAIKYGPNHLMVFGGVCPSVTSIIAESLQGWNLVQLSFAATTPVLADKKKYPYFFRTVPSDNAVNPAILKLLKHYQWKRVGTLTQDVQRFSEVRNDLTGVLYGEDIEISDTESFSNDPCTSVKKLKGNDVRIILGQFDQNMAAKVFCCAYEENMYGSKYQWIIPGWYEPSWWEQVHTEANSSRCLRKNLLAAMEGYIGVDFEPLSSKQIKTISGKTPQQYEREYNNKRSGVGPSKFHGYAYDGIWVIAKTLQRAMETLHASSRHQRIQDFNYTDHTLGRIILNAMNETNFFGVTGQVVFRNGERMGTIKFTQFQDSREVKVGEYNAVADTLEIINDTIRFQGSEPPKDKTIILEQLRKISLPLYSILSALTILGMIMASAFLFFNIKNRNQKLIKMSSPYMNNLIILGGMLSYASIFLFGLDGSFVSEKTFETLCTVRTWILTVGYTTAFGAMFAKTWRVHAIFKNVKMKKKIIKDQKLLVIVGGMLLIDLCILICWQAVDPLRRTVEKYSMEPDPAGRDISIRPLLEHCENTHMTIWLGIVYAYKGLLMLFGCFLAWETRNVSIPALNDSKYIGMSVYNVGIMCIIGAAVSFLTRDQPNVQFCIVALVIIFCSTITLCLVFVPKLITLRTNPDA
# [1] = molecular target: dGB2 12A (ordered C-terminus 717–728 replaced by 12 alanines) (Drosophila melanogaster, UniProt Q9BML6 1-1220, 12A: residues 717–728 replaced with 12 consecutive alanine residues)
# human GB2 Δ772 = molecular target: T2, human GB2 Δ772 (human, UniProt O75899 42-772)
# T2 sequence (looked up): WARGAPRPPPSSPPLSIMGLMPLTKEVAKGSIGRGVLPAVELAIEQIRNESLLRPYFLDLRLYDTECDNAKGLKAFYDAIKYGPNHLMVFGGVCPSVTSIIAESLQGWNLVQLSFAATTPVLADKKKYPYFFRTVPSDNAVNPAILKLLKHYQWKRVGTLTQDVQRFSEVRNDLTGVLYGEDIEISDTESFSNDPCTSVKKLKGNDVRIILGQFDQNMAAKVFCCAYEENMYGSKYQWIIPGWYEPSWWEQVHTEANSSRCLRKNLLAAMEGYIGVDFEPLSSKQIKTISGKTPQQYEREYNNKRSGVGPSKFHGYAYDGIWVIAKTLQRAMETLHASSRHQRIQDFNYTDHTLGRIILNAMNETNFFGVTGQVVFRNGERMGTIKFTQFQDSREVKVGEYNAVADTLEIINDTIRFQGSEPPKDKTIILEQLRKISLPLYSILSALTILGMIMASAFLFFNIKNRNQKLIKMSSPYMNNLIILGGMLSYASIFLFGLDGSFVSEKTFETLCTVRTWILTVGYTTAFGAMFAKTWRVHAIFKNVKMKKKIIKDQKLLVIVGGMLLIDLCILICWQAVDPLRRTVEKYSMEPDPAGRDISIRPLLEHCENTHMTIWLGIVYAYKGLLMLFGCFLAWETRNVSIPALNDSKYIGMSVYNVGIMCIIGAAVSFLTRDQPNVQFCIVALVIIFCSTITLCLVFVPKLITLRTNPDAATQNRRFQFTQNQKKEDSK
# human GB2 Δ765 = molecular target: T3, human GB2 Δ765 (human, UniProt O75899 42-765)
# T3 sequence (looked up): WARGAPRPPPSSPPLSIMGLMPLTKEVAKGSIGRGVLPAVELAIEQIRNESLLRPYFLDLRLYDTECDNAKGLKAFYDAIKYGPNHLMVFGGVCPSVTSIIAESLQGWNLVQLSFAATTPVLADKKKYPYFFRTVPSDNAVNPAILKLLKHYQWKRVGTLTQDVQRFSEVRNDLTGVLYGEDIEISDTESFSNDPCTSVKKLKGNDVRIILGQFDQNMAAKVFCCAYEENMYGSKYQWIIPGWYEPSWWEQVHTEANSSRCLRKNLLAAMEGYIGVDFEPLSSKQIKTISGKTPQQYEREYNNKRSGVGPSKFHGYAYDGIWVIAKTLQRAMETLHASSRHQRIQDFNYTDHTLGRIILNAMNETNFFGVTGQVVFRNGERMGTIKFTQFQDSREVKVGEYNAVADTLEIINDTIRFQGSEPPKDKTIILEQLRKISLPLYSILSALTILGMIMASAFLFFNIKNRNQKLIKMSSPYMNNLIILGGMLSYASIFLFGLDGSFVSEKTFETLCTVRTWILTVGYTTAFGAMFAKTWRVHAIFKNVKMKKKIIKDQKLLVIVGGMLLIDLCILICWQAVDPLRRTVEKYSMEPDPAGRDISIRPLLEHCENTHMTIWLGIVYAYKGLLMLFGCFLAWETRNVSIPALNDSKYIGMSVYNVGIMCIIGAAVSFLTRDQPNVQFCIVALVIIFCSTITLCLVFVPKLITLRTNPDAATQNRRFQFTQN
# human GB2 Δ760 = molecular target: T4, human GB2 Δ760 (human, UniProt O75899 42-760)
# T4 sequence (looked up): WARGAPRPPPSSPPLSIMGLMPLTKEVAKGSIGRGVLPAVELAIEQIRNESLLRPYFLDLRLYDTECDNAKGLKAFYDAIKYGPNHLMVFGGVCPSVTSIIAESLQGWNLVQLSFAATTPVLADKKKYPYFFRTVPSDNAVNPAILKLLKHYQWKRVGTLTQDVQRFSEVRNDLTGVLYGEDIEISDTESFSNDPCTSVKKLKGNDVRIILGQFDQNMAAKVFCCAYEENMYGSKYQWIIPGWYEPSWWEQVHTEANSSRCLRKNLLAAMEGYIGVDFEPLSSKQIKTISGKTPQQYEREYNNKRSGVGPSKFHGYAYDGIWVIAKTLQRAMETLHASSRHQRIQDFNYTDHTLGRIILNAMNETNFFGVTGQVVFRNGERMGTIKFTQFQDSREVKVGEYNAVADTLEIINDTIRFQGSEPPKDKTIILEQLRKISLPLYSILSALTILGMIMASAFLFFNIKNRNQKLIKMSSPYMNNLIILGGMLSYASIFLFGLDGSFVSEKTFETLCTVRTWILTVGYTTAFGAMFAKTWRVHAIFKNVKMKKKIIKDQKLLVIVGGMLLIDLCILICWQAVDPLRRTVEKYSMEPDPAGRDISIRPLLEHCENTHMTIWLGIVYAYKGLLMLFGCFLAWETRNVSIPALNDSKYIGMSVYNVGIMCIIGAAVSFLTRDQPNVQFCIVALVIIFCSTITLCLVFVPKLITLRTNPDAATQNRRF
# [2] = molecular target: dGB2 4 × GSG (ordered C-terminus 717–728 replaced by four glycine-serine-glycine) (Drosophila melanogaster, UniProt Q9BML6 1-1220, 4 × GSG: residues 717–728 replaced with four consecutive glycine-serine-glycine)
# Chain of dGB2 4 × GSG (ordered C-terminus 717–728 replaced by four glycine-serine-glycine) (Q9BML6 entry or part of it with the stated changes): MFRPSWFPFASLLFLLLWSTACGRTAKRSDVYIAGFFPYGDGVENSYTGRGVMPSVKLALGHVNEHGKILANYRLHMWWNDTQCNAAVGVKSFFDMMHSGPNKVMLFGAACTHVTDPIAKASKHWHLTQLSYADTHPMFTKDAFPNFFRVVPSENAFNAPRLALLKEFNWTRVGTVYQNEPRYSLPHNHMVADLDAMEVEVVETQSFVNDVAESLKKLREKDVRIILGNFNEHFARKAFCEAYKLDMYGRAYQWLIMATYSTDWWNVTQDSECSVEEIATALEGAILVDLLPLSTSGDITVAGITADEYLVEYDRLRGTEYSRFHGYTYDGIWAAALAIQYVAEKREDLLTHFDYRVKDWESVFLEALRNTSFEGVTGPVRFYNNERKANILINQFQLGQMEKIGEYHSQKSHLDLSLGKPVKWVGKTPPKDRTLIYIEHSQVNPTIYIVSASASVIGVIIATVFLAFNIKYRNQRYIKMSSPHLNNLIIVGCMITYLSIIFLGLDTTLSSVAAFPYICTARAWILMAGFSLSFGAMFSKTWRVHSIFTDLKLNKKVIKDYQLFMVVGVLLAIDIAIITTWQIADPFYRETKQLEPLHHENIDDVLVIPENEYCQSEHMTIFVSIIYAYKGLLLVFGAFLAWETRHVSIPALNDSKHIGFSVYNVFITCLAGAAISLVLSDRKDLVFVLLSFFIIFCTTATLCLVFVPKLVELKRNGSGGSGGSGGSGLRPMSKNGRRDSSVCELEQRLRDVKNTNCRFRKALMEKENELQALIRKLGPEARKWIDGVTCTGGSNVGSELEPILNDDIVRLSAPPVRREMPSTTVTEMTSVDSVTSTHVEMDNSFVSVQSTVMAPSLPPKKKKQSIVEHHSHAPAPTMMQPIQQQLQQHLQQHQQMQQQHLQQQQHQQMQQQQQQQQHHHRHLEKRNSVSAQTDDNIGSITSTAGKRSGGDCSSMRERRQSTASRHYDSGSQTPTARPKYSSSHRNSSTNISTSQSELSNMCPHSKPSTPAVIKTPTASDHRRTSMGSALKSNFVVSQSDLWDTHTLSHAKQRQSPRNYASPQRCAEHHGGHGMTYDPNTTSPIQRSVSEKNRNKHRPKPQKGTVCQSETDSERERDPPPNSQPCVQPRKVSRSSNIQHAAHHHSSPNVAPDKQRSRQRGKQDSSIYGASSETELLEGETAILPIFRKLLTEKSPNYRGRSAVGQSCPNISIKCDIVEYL
# Chain of dGB2 12A (ordered C-terminus 717–728 replaced by 12 alanines) (Q9BML6 entry or part of it with the stated changes): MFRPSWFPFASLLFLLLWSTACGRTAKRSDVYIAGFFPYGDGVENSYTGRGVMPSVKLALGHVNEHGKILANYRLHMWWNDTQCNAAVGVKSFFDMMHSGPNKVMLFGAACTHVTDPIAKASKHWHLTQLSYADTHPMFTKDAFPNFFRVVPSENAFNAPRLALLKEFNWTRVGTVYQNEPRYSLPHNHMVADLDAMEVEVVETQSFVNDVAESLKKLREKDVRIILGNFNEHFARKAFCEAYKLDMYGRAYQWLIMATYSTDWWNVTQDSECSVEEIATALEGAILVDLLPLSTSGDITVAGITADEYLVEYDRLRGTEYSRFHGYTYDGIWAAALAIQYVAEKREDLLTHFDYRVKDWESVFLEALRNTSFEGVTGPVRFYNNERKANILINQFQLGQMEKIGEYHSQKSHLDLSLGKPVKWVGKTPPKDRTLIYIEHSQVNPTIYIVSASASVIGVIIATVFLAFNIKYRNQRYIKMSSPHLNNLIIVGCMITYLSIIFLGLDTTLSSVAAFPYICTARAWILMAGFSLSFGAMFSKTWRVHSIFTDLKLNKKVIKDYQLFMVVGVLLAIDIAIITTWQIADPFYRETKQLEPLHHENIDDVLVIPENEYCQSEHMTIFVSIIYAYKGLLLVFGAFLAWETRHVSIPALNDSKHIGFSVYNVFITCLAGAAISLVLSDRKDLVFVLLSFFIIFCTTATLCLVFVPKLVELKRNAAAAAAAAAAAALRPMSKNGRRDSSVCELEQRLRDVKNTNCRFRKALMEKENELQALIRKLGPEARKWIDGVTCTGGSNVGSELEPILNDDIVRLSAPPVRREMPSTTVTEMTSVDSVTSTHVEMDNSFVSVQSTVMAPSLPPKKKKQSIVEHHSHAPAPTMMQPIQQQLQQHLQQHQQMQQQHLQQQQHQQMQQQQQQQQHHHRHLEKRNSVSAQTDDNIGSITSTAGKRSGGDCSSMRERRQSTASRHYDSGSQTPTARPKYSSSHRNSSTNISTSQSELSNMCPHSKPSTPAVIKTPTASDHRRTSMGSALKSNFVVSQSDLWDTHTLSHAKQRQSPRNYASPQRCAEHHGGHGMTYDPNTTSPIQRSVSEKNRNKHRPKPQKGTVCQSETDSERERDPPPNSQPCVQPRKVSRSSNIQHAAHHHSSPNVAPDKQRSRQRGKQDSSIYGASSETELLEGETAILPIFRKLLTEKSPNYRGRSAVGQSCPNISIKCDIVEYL
binder,measurement,setting,value
B1,"GABA-induced intracellular Ca2+ release, HEK293 cells co-transfected with GB1ΔCC and the GB2 truncation, increase in EC50 against Δ780 of GB2",human GB2 Δ753,30.8 fold
same,"GABA-induced intracellular Ca2+ release, HEK293 cells co-transfected with GB1ΔCC and the GB2 truncation, reduction in E max against Δ780 of GB2",human GB2 Δ753,76 % reduction in E max
same,"BRET assay of GABA-induced dissociation of Gαi1 and Gβγ in HEK293 cells, change of EC50 against wild-type dGB2",[1],8.8 fold
same,"GABA-induced intracellular Ca2+ release (Gqi9), change of EC50 of GABA against wild-type dGB2",[1],2 fold
same,"GABA-induced intracellular Ca2+ release, HEK293 cells co-transfected with GB1ΔCC and the GB2 truncation, increase in EC50 against Δ780 of GB2",human GB2 Δ772,6.5 fold
same,"GABA-induced intracellular Ca2+ release, HEK293 cells co-transfected with GB1ΔCC and the GB2 truncation, increase in EC50 against Δ780 of GB2",human GB2 Δ765,9.4 fold
same,"GABA-induced intracellular Ca2+ release, HEK293 cells co-transfected with GB1ΔCC and the GB2 truncation, reduction in E max against Δ780 of GB2",human GB2 Δ765,22 % reduction in E max
same,"GABA-induced intracellular Ca2+ release, HEK293 cells co-transfected with GB1ΔCC and the GB2 truncation, increase in EC50 against Δ780 of GB2",human GB2 Δ760,16.2 fold
same,"GABA-induced intracellular Ca2+ release, HEK293 cells co-transfected with GB1ΔCC and the GB2 truncation, reduction in E max against Δ780 of GB2",human GB2 Δ760,39 % reduction in E max
same,"BRET assay of GABA-induced dissociation of Gαi1 and Gβγ in HEK293 cells, change of EC50 against wild-type dGB2",[2],3 fold
